Experiment: soluble on expression in E. coli; label from the status in PepcDB or PDB records

Sequence	soluble on expression in E. coli
IRVNTNKGGGVWESGAANSQSTSWGSGNGANSGGSRRGWGTPAQNTGTNLPSVEWNKLPSNQHSNDSANGNGKTFTNGWKSTEEEDQGSATSQTNEQSSVWAKTGGTVESDGSTESTGRLEEKGTGESQSRDRRKIDQHTLLQSIVNRTDLDPRVLSNSGWGQTPIKQNTAWDTETSPRGERKTDNGTEAWGSSATQTFNSGACIDKTSPNGNDTSSVSGWGDPKPALRWGDSKGSNCQGGWEDDSAATGMVKSNQWGNCKEEKAAWNDSQKNKQGWGDGQKSSQGWSVSASDNWGETSRNNHWGEANKKSSSGGSDSDRSVSGWNELGKTSSFTWGNNINPNNSSGWDESSKPTPSQGWGDPPKSNQSLGWGDSSKPVSSPDWNKQQDIVGSWGIPPATGKPPGTGWLGGPIPAPAKEEEPTGWEEPSPESIRRKMEIDDGTSAWGDPSKYNYKNVNMWNKNVPNGNSRSDQQAQVHQLLTPASAISNKEASSGSGWGEPWGEPSTPATTVDNGTSAWGKPIDSGPSWGEPIAAASSTSTWGSSSVGPQALSKSGPKSMQDGWCGDDMPLPGNRPTGWEEEEDVEIGMWNSNSSQELNSSLNWPPYTKKMSSKGLSGKKRRRERGMMKGGNKQEEAWINPFVKQFSNISFSRDSPEENVQSNKMDLSGGMLQDKRMEIDKHSLNIGDYNRTVGKGPGSRPQISKESSMERNPYFDKDGIVADESQNMQFMSSQSMKLPPSNSALPNQALGSIAGLGMQNLNSVRQNGNPSMFGVGNTAAQPRGMQQPPAQPLSSSQPNLRAQVPPPLLSPQVPVSLLKYAPNNGGLNPLFGPQQVAMLNQLSQLNQLSQISQLQRLLAQQQRAQSQRSVPSGNRPQQDQQGRPLSVQQQMMQQSRQLDPNLLVKQQTPPSQQQPLHQPAMKSFLDNVMPHTTPELQKGPSPINAFSNFPIGLNSNLNVNMDMNSIKEPQSRLRKWTTVDSISVNTSLDQNSSKHGAISSGFRLEESPFVPYDFMNSSTSPASPPGSIGDGWPRAKSPNGSSSVNWPPEFRPGEPWKGYPNIDPETDPYVTPGSVINNLSINTVREVDHLRDRNSGSSSSLNTTLPSTSAWSSIRASNYNVPLSSTAQSTSARNSDSKLTWSPGSVTNTSLAHELWKVPLPPKNITAPSRPPPGLTGQKPPLSTWDNSPLRIGGGWGNSDARYTPGSSWGESSSGRITNWLVLKNLTPQIDGSTLRTLCMQHGPLITFHLNLPHGNALVRYSSKEEVVKAQKSLHMCVLGNTTILAEFASEEEISRFFAQSQSLTPSPGWQSLGSSQSRLGSLDCSHSFSSRTDLNHWNGAGLSGTNCGDLHGTSLWGTPHYSTSLWGPPSSSDPRGISSPSPINAFLSVDHLGGGGESM	soluble
MDTNWLYVLLQKSTADPLERLKLGNVILNEVSQRKVSPHPKLVNDFLDVMSGWLTGSNFKVSTIGLEILDAALRTSPDVLASYYFDRCSVLIERMGDAKVQVREMAINLCLQLAYLENSSPVMLLDRLCVPGTGFQHKQWLVKVGSLNILREFLSSSFALVIQQAITLIPQLCRLTNDPNSEVRDVSTQCLIDLMVYGGKPIVAKIAATRLINEQKMATLLQRYQTTVATRGDLPPKHTITMETTPAQPSRNSLLRRSLRSPAKIIHPSASTTSFTSSARLSTPPRPTTTAAQSLSLAPQTPSPLSLPSPSGGQMSRSRDLTRSSLRAPAGISISRYRSSSCAPAAQCAITLDDFKKSFTAVPKTTIYSNHDIREKLELANLVLRNANEDWSKRANQLKLIRSIIINCDENIDRSLLISIINELADALEFSIRDLRSQIVREAAVTCSFLFETFGMEVKNVAECVLPAALAQVAVSTKVIASSAATLTVFIVQKIQTRQIFTTLSELSSSKAKEQRRQLAVVLETLIASWDLKSKQPILKQIAQLVQNAICDADGETRVAGRKAFAKLEQLHGTTADLIFRELDPAKQKMLRDGVSSSSSSLNSDRDNNNQKQQPNQQNISQKFLSQRSASAVDKSIQLSVKPQTTAIPSRPTAMPMNNRLPKSSTSTSFSAVRSSGYGQNQSTTPNRAKTPSDGFAGSSPHYTNGNNNNKSSSSSPSTSTHQTPIQRVASNLGSSSFVASLTQEQANCLQNAMNTAKDEMSKNNEDDEFLLDEIRKTPPKEVPRSYNNSPFKPSNLDSSVHRSYNNNSPFRPSSGSVGSGSNGSVQSIEHILKACTSSSLNEKRDAIVNLNQVITDPNLCQLECKNIGDTLSRLLAEGNNTLIISILDTISIFIKFQYKKLDNWLKLALGKLFAKMGADALPNVKSALSSTQKMFLTTFDPTFQLKAVCDFMCDPVHLLSPKSRLALLEYICLLFEEIWPEDPRCLERQTHLDTPYTRAAIRKMFAWMFDPRIGAILMPACERLVCALFALNAADFTMIFGELPSECRDWAYRILQLNGQQNNQKPIEKEKERFISNNNYKPCPLDNEEIEKPIMKTTYSTYESTRKEYSQTERIATENQYSTPPPPDYRTSTAHLAKNHVDQAAYIRNQLDAIRDFEKADKLNEAMANLHGMMCEGSFTLWNQFFDELLDSIYQILSTFSQSIRKKLALRILQKMCTAQATKLFDSTEIAISKVLQCACTSDDNTMGVAAEDCLRILASHLPLTRVVLISRRILSQDDDDQRGVLILKMLTRMFQDIDIEELHLIVNDVAPCFVTAYESMSSTVRKCAVFGLVALVQRVGMQRMEPHLRTLNASKLNLIDLYVGRAKSSESGASSN	not soluble
MSLHKKDIIRLLETIAVYMELKGDNPFKVSAFRKAAAALEQDDRSLSEMDDMMSLSGIGKGTYSVIKEYIDEGKSSTLESLQKEVPEGLVPLLKLPGLGGKKIAKLYKELGVHDAESLKEACEQQKVQGLAGFGKKSEEKILQALGEAGKQPERFPIGYALRIAREIEEHLSQFTHIIKFSRAGSLRRARETVKDLDYIIATDHPAEVREQLLELPNIKSVIASGDTKVSVILSFEYETSVDFRLVTEEQFPTTLHHFTGSKDHNIKMRQIAKERGERISEYGVETVETGEIKTFPSEREFYAHFGLPLIPPEIRESEGHHHHHH	soluble
MPDQPLNQDGFPTASKGVEPDNLPDRVLVDGLKPKHQQLREILEEICTTQLQPGDMLPGERILEEKYGVSRITVRRAIGDLVASGRLKRARGKGTFVAHSPLISRLHLASFSAEMAAQKLSATSRILSSSRGPAPDDIADFFGTDRAAQHITLRRLRLGNGRPYAIDNGWYNSEFAPDLLENDVYNSVYSILDRVYGVPVTQAEQTVTAVAADEDTARLLDVTPGAPLLRILRQSLSGDKPVEWCVSLYRTDRYSLKTLVTRSEDL	soluble
MSLDLNQIKAVVFDLEGTLLDRVKSREKFIEEQYERFHDYLIHVQLADFKKAFIELDDDEDNDKPDLYKEIIKRFHVDRLTWKDLFNDFEMHFYRYVFPYYDTLYTLEKLSQKGFQIGVIANGKSKIKQFRLHSLGLMHVINYLSTSETVGFRKPHPKIFEDMIDQLGVLPEQIMYVGDDALNDVAPARAMGMVSVWYKQEDAEIEPLEEEVDFTITTVEELLTILPIKNDNKGENYGSIYEGHHHHHH	soluble
MSLNEPVMNKKHFADNNFEEFQRIIRAKLENFKDRIELIEELLSKYHPTRLKEYTKDGIIYSKQCEFYNFLVGMNEAPFICNRKDLYLKEKMHGGVKEVYFANKHGKILNDDLSEKYFSAIEISEYAPKSQSDLFDKINALDSEFIFMHAYSPKNSQVLKDKLAFTSRRIIISGGSKEQGMTLGCLSELVGNGDITLGSYGNSLVLFADSFEKMKQSVKECVSSLNAKGFLANAATFSMENYFFAKHCSFITLPFIFDVTSNNFADFIAMRAMSFDGKEDNNAWGNSVMTLKSEINSPFYLNFHMPTDEGHHHHHH	not soluble
MTEFYSDTIGLPKTDPRLWRLRTDELGRESWEYLTPQQAANDPPSTFTQWLLQDPKFPQPHPERNKHSPDFSAFDACHNGASFFKLLQEPDSGIFPCQYKGPMFMTIGYVAVNYIAGIEIPEHERIELIRYIVNTAHPVDGGWGLHSVDKSTVFGTVLNYVILRLLGLPKDHPVCAKARSTLLRLGGAIGSPHWGKIWLSALNLYKWEGVNPAPPETWLLPYSLPMHPGRWWVHTRGVYIPVSYLSLVKFSCPMTPLLEELRNEIYTKPFDKINFSKNRNTVCGVDLYYPHSTTLNIANSLVVFYEKYLRNRFIYSLSKKKVYDLIKTELQNTDSLCIAPVNQAFCALVTLIEEGVDSEAFQRLQYRFKDALFHGPQGMTIMGTNGVQTWDCAFAIQYFFVAGLAERPEFYNTIVSAYKFLCHAQFDTECVPGSYRDKRKGAWGFSTKTQGYTVADCTAEAIKAIIMVKNSPVFSEVHHMISSERLFEGIDVLLNLQNIGSFEYGSFATYEKIKAPLAMETLNPAEVFGNIMVEYPYVECTDSSVLGLTYFHKYFDYRKEEIRTRIRIAIEFIKKSQLPDGSWYGSWGICFTYAGMFALEALHTVGETYENSSTVRKGCDFLVSKQMKDGGWGESMKSSELHSYVDSEKSLVVQTAWALIALLFAEYPNKEVIDRGIDLLKNRQEESGEWKFESVEGVFNHSCAIEYPSYRFLFPIKALGMYSRAYETHTL	soluble
MHAEKDLITKETTQPVPPPAAVVTHQPITKRYDPPISISPPPQRNNYSHVKVTVDSDTSPRQQAFIDDIVAKGGKLAVVTYDRGGQNTKELTVHKGEYLEVIFDERNWWECKNMHQRVGYVPHTILSMVPFEQQQYASPNHHNNSSSTGGYNNGHHQGPGMLPEDAPSYVKERQGKRGEFRYF	not soluble
MDLNVKQSGIHSVALHTTYFQNRSGKVYKRAEERYLRNDLSCGLAQCGTCKDFGTNPLLKIENPVRNAKVGRHALIVDSTSLIRFYDLFDSSLLRDLIVTQTVWEGVKAKAVPAYKKMNSLCYEDAKDRFHVFMNEFHCETFSESSKFEDLSRGEELLLSTALYLKTHWQKHNVAPVVLVFDEDSKKRMENHYQHVMYLKEYIQNLEDPGKQALLDQMAAYESSGNGNEKQIFDEYLSHDRIMEGIASGTIKRGNFSVSRENYREATVIIDDQLTSWFITGNNCNRAVNGDTVAVQLLPEDQWTAPEKKIRLRDVEEYVKTADDMGNEDEENDDENDEPKAKKSKKMTVSTAKVVGIIKRNWREYCGMLLPSTVKGARRHLFCPAERLIPRIRIETEQAETLSQQRIVVAIDHWPRDSKYPLGHYVRSIGEMGSRETENEVLLLEHDIPHAPFSESVLDCLPREEWEPDLTENRGPLPRVDLRDLTICSVDPLGCTDIDDALHCKQIGEDLFEVGVHIADVTHFVRPGTAIDDEAALRGTTVYLCDRRIDMLPCLLSSNLCSLRGEEERYAFSCIWTMTSSADIQSVKYHKSLIKSKAALTYEKAQEIIDDPKEQNDVALGLRGLMKLSKVLNARRTGNGALTLASSEVRFDMDWESRTPKKVMEKQHLDTHSMVEEFMLLANISVAEKILEEYPDCALLRRHPVPLKESYKPLVEAARHRGFEIIVESGKGLADSLNRCVDKKNPMLNRLLRMLTTRCMTQAVYFSAGKDGFSDIKLEEKKFFVLKTLNLPYRSCLCDDTETSIHLSRGLNDYFLFKKEKLHMSVGVLFKLFDCLGTVPVPQYQHFGLACAIYTHFTSPIRRYADVIVHRLLAAAIGADDIQSGLLNQARCTKICTNINYRHKQAQYAGRASVQLNVVRYFKGKVETCEGFVMGVRNNGIQVFVPKYGLESIIVLQTSAASGTTIDVEEMSVKVNGDVVIKELEPVTVRISVNEKNQQRPRVELQLIKPAIPGLSVDFDLSSSEGLGL	not soluble
EVVVRRLSDPVELEEAVEVHARAWGSRDYREVVAPHILRALVDNGGLVLGAFVGGRMVGASYGWFVGCGEGRYFYSHATGVEEGYKYRGVGFALKARQREEVLREGVSLAKWTFDPLQSLNTRFNLAKLGAVYRVYKVNYYGEMTDEINRGLGSDRVVAEWWL	not soluble
MPKHCSHLIIIPDGKMAAIPFEALIEKRPKHDTSSYAQMGFMIKKYATSYTYTASLYENTHEAAKVKKVLLFAPVDFSASSDLNALPGTLAEVDTLTSLCTNTAQADVYTYTAASKAVLVSDSLSGYSIIHLATHGLVDEEQPELSCIYTSGTSEENDRIYAGDMYNMHLNAALVSLSACQTGLGKIEKGEGMIGLSRALFYAGADNIMVSLWKVSDLSTQVYMQYFYSIYLSENFTTFAEAARISKIKLLNSETFNSPYYWAAFILIGKLEHHHHHH	not soluble
